T1: recombinant cynomolgus monkey TSLP (cynomolgus monkey, UniProt Q969D9 29-159 (human entry), limits assumed)
T1 chain: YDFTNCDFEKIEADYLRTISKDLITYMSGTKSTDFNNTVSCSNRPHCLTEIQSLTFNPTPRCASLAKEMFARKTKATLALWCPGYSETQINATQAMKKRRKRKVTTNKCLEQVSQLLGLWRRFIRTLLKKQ

T2: recombinant mouse TSLP (mouse, UniProt Q9JIE6 20-140)
T2 construct: Bought from R&D Systems (MW 15 kDa); also called mTSLP; murine TSLP
T2 sequence: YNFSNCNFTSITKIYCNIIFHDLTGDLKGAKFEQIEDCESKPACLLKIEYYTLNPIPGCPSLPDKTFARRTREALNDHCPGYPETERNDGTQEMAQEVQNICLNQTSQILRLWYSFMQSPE


Experiments:
[1] = target: naturally-secreted human TSLP (human, UniProt Q969D9 29-159); assay: cell-based or functional assay
[2] = target: T3, recombinant human TSLP (human, UniProt Q969D9 29-159); assay: cell-based or functional assay
[3] = target: T1, recombinant cynomolgus monkey TSLP; assay: cell-based or functional assay
[4] = target: T2, recombinant mouse TSLP; assay: Biacore SPR, Fab1 captured on a human Fab binder CM5 chip, TSLP injected
Protocol: Human Fab binder was immobilized on all four flow cells of a CM5 chip using a Human Fab Capture kit following manufacturer's instructions. A contact time of 360 seconds at a flow rate of 10 uL/min was specified. The temperature of the sample compartment was 10° C. and analysis temperature was 25° C.; prior to immobilization, the CM5 chip was primed with HBS-EP+ and normalized with BIAnormalizing solution. 375 uL of 20 ug/mL human Fab binder was prepared by combining 15 uL 0.5 mg/mL stock with 360 uL pH5 immobilization buffer (both provided in Human Fab Capture kit).
The temperature of the sample compartment was 10° C. and analysis temperature was 25° C. […] Regeneration of the Fab binder surface was achieved after each cycle by injecting 10 mM glycine-HCl, pH 2.0 for 60 s at 10 uL/min, followed by an extra wash with HBS-EP+ buffer. The temperature of the sample compartment was 10° C. and analysis temperature was 25° C.

[5] = target: T4, human TSLP (HEK) (human, UniProt Q969D9 29-159); assay: solution equilibrium titration (SET), antigen titrated in solution, free Fab read on an E. coli hsTSLP-coated MSD plate, mean of 3 experiments ± SD
T4 construct: also called human TSLP (produced in HEK cells)
Protocol: (§1) The Fab was incubated at a constant concentration with serial dilutions of the respective antigens. The binding affinity was extracted from a competition curve which was generated by plotting the read-out of the concentration of unbound antibody against the applied antigen concentration.
(§2) A 384-well MSD array MTP was coated o/n at 4° C. with 30 μl/well of hsTSLP (produced in E. coli) diluted in PBS at 5 μg/ml, then washed three times with 70 μl/well of wash buffer and blocked with 50 μl/well of blocking buffer for 1 h at RT on a shaker. After washing, a volume of 30 μl/well of the equilibrated antigen-Fab mix was transferred from the polypropylene MTP to the coated MSD plate and incubated for 20 min at RT.

[6] = target: T1, recombinant cynomolgus monkey TSLP; assay: as above
Protocol: as §1, §2

[7] = target: T3, recombinant human TSLP; assay: solution equilibrium titration (SET), MSD electrochemiluminescence
Protocol: as §1, §2

[8] = target: T5, His6-PreSc-TSLP (recombinant human TSLP used in crystallography) (human); assay: complex purified by size-exclusion chromatography and solved by X-ray crystallography
T5 construct: also called TSLP (chain T)
T5 sequence (chain, as listed by the source limits assumed): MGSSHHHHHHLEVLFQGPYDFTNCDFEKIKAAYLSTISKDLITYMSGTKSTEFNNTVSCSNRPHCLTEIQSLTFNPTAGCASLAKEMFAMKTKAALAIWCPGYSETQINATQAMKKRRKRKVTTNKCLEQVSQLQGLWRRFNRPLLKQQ
Protocol: The peak fraction was concentrated to 9.2 mg/ml by ultrafiltration and submitted to crystallization screening.

Binder | IC50, luciferase reporter gene assay (Ba/F3 cells with hTSLPR, hIL7Rα and Stat5-luciferase) [1] [nM] | IC50, TSLP-induced TARC secretion from human PBMC [2] [nM] | IC50, luciferase reporter gene assay (Ba/F3 cells with hTSLPR, hIL7Rα and Stat5-luciferase) [2] [nM] | mean IC50 (n=3), TSLP-induced TARC secretion from human PBMC [2] [nM] | mean IC50 (n=3), luciferase reporter gene assay [2] [nM] | IC50, TSLP-induced MDC secretion from cyno PBMC [3] [nM] | IC50, TSLP-induced TARC secretion from human PBMC [3] [nM] | IC50, luciferase reporter gene assay (Ba/F3 cells with hTSLPR, hIL7Rα and Stat5-luciferase) [3] [nM] | mean IC50 (n=3), TSLP-induced MDC secretion from cyno PBMC [3] [nM] | mean IC50 (n=3), TSLP-induced TARC secretion from human PBMC [3] [nM] | mean IC50 (n=3), luciferase reporter gene assay [3] [nM] | binding result [4] | Kd [5] [nM] | Kd [6] [nM] | Kd [7] [nM] | binding result [8]
anti-TSLP Fab1 (Fab, V domains shown, also called anti-human TSLP Fab1; Fab fragment of MOR014824 (Mab1)) VH: EVQLVESGGGLVKPGGSLRLSCAASGFTFSDYWMHWVRQAPGKGLEWVGHIKSKTDAGTTDYAAPVKGRFTISRDDSKNTLYLQMNSLKTEDTAVYYCAREIYYYAFDSWGQGTLVTVSS VL: SYELTQPLSVSVALGQTARITCSGDNIGSKYVHWYQQKPGQAPVLVIYGDNERPSGIPERFSGSNSGNTATLTISRAQAGDEADYYCQAADWVDFYVFGGGTKLTVLG | 0.0171 | 0.0203 | 0.0154 | 0.0197 | 0.0153 | 0.0555 | 0.0113 | 0.0108 | 0.0251 | 0.0111 | 0.0095 | no binding (tested: 10 nM highest antigen concentration) | 0.005 | 0.0014 | 0.006 | 
anti-TSLP Fab1 generated by papain digestion of anti-TSLP mAb1 (crystallography sample) (Fab, V domains shown, pyroglutamic acid residue at the amino-terminus, also called the Fab) VH: EVQLVESGGGLVKPGGSLRLSCAASGFTFSDYWMHWVRQAPGKGLEWVGHIKSKTDAGTTDYAAPVKGRFTISRDDSKNTLYLQMNSLKTEDTAVYYCAREIYYYAFDSWGQGTLVTVSS VL: SYELTQPLSVSVALGQTARITCSGDNIGSKYVHWYQQKPGQAPVLVIYGDNERPSGIPERFSGSNSGNTATLTISRAQAGDEADYYCQAADWVDFYVFGGGTKLTVLG |  |  |  |  |  |  |  |  |  |  |  |  |  |  |  | binds

From patent publication US20200325218A1 (Novartis, published 2020)
